According to patent US20240117038A1 (Ablynx, published 2024):
Changes are numbered by the printed parent chain. In names and notes the source's numbering stands.

T1: human CX3CR1 T280M (human, UniProt P49238 1-355)
T1 construct: Transiently transfected in HEK293T cells (pcDNA3.1); also called huCX3CR1 variant T280M (Rs3732378)
T1 sequence: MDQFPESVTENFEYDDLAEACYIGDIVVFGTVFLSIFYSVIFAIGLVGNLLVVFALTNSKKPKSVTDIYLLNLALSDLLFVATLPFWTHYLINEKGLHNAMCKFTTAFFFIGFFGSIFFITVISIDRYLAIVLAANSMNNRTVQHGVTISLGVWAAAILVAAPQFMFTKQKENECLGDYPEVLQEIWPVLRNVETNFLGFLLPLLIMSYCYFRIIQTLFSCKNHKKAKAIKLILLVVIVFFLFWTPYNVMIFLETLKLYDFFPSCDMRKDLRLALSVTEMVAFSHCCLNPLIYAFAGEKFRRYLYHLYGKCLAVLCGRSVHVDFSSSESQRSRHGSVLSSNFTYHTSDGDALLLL

T2: cynomolgus CX3CR1 (cynomolgus monkey (Macaca fascicularis), UniProt P49238 1-355 (human entry))
T2 construct: Overexpressed on CHO K1 cells; also called cyno CX3CR1; cyCX3CR1
T2 chain: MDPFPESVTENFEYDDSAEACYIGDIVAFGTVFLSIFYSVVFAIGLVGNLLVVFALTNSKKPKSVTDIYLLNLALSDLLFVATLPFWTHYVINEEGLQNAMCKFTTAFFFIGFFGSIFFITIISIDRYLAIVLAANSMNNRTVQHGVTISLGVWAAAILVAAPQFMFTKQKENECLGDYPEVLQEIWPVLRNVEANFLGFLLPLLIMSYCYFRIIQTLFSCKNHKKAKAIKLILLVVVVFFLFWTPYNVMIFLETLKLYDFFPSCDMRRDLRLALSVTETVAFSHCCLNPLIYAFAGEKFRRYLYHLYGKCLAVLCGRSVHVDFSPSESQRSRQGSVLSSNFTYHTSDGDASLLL

T3: human CX3CR1 V249I/T280M (human, UniProt P49238 1-355)
T3 construct: Transiently transfected in HEK293T cells (pcDNA3.1); also called huCX3CR1 variant V249I and T280M
T3 chain: T1 sequence with V249I

B1: A041600025 (VHH)
chain: DVQLVESGGGSVQPGGSLRLSCAASGSIFSSTAMAWYRQAPGKQRDLVAVISTVGITKYADSVKGRFTISRDNAKNTVYLQMNSLRPEDTALYYCTSDARRGWDTRYWGQGTLVTVSSGGGGSGGGSEVQLVESGGGVVQPGGSLRLSCAASGFTFRSFGMSWVRQAPGKGPEWVSSISGSGSDTLYADSVKGRFTISRDNSKNTLYLQMNSLRPEDTALYYCTIGGSLSRSSQGTLVTVSSGGGGSGGGSEVQLVESGGGSVQPGGSLRLSCAASGSIFSSTAMAWYRQAPGKQRDLVAVISTVGITKYADSVKGRFTISRDNAKNTVYLQMNSLRPEDTALYYCTSDARRGWDTRYWGQGTLVTVSSA
notes: Trivalent ISVD construct (two anti-CX3CR1 ISVDs, one anti-albumin ISVD), C-terminal alanine included in the entry; also called 54A12_SO (E1D)-9GS-ALB23002-9GS-54A12_SO-A
B2: A041600034 (VHH)
chain: B1 chain with Q295R, V301A, S303N, I307V, A350P
notes: Trivalent ISVD construct; also called 54A12_SO (E1D)-9GS-ALB23002-9GS-66B02_SO-A
B3: A041600085 (VHH)
chain: DVQLVESGGGLVQPGGSLRLSCAASGSIFSSTAMAWYRQAPGKRRDLVAAISTVGVTKYADSVKGRFTISRDNSKNTVYLQMNSLRPEDTAVYYCTSDPRRGWDTRYWGQGTLVTVSSGGGGSGGGSEVQLVESGGGVVQPGGSLRLSCAASGFTFRSFGMSWVRQAPGKGPEWVSSISGSGSDTLYADSVKGRFTISRDNSKNTLYLQMNSLRPEDTALYYCTIGGSLSRSSQGTLVTVSSGGGGSGGGSEVQLVESGGGLVQPGGSLRLSCAASGSIFSSTAMAWYRQAPGKRRDLVAAISTVGVTKYADSVKGRFTISRDNSKNTVYLQMNSLRPEDTAVYYCTSDPRRGWDTRYWGQGTLVTVSSA
notes: also called 307-9GS-ALB23002-9GS-307 (D1E)-A
B4: A041600035 (VHH)
chain: DVQLVESGGGSVQPGGSLRLSCAASGSIFSSTAMAWYRQAPGKQRDLVAVISTVGITKYADSVKGRFTISRDNAKNTVYLQMNSLRPEDTALYYCTSDARRGWDTRYWGQGTLVTVSSGGGGSGGGSEVQLVESGGGSVQPGGSLRLSCAASGSIFSSTAMAWYRQAPGKQRDLVAVISTVGITKYADSVKGRFTISRDNAKNTVYLQMNSLRPEDTALYYCTSDARRGWDTRYWGQGTLVTVSSGGGGSGGGSEVQLVESGGGVVQPGGSLRLSCAASGFTFRSFGMSWVRQAPGKGPEWVSSISGSGSDTLYADSVKGRFTISRDNSKNTLYLQMNSLRPEDTALYYCTIGGSLSRSSQGTLVTVSSA
notes: Trivalent ISVD construct (two anti-CX3CR1 ISVDs, one anti-albumin ISVD), C-terminal alanine included in the entry; also called 54A12_SO (E1D)-9GS-54A12_SO-9GS-ALB23002-A
B5: A041600041 (VHH)
chain: B4 chain with Q171R, V177A, S179N, I183V, A226P
notes: Trivalent ISVD construct (two anti-CX3CR1 ISVDs, one anti-albumin ISVD), C-terminal alanine included in the entry; also called 54A12_SO (E1D)-9GS-66B02_SO-9GS-ALB23002-A

Legend:
human CX3CR1 T280M = target: T1, human CX3CR1 T280M; assay: flow cytometry on transiently transfected HEK293T cells, human CX3CR1 T280M
Experimental: (§1) After washing, serial dilutions of multivalent ISVD construct (starting from 250 nM, 3-fold dilution, 11 points, diluted in assay buffer), were added and incubated for 4 hours at 4° C. Binding was performed in the presence of 30 uM HSA (Sigma-Aldrich, Cat. No. A8763). Plates were then washed 3 times and cells were incubated with an anti-VHH mouse antibody (3300-fold diluted in assay buffer) for 30 minutes at 4′° C. […] Plates were finally washed 3 times and cells were resuspended in PI (Miltenyi Biotec, Cat. No. 130-093-233, 1000-fold diluted in assay buffer). Cell suspensions were analyzed with iQue Screener PLUS (Intellicyt). EC50s were estimated by dose response modelling. Curves were fit using 4 parameter logistic regression in GraphPad (GraphPad Software Inc.). A purified anti-human CX3CR1 antibody [K0124E1] (BioLegend, Cat. No. 355701/355702) was used as positive control to detect CX3CR1 expression on the cell surface.
(§2) Two important SNPs are described in huCX3CR1, i.e. V2491 (Rs3732379) and T280M (Rs3732378), which might influence receptor activity and binding by the ISVD. […] Different combinations of these SNPs were introduced in human CX3CR1, and binding by 5 selected multivalent ISVD constructs was assessed with flow cytometry after transient transfection of the huCX3CR1 variants in HEK293T cells.
(§3) In short, the CX3CR1 constructs were cloned into pcDNA3.1 (ThermoFisher Scientific, Cat. No. V79020) and plasmid DNA was prepared from Escherichia coli TOP10 cells. HEK293T cells were seeded at a concentration of 1.5E06 cells per T75 flask and incubated overnight at 37° C. in DMEM medium (Gibco, Cat. No. 31966) supplemented with 10% FBS (Sigma. Cat. No. F7524). The medium was then replaced by Opti-MEM medium (Gibco, Cat. No. 31985). A mixture of 9 μg plasmid DNA, 27 μL Fugene 6 (Promega, Cat. No. E2691) in a final volume of 1 mL Opti-MEM was incubated for 15 minutes at room temperature and then added to the cells. After 3 hours incubation at 37° C., 10 mL of DMEM supplemented with 20% FBS was added, and incubation continued.

cynomolgus CX3CR1 = target: T2, cynomolgus CX3CR1; assay: flow cytometry on CHO K1 cyCX3CR1 cells, 30 uM HSA
Experimental: as §1, with “CHO cells overexpressing human or cynomolgus CX3CR1 were generated using techniques known in the art. Cells were harvested and resuspended in assay buffer (PBS, 2% FBS, 0.05% NaN3) and seeded separately in 384-well Bio-One V-bottom plates (Greiner, Cat. No. 781280), with a total of 2E04 cells seeded per well. After” for “After”

human CX3CR1 V249I/T280M = target: T3, human CX3CR1 V249I/T280M; assay: flow cytometry on transiently transfected HEK293T cells, human CX3CR1 V249I/T280M
Experimental: as §1, §2, §3

Binder | EC50 (human CX3CR1 T280M) | EC50 (cynomolgus CX3CR1) | top (cynomolgus CX3CR1) | EC50 (human CX3CR1 V249I/T280M)
B1 | 160 pM | 360 pM | 266000 | 170 pM
B2 | 74 pM | 450 pM | 273000 | 90 pM
B3 | 170 pM | 560 pM | 186000 | –
B4 | 200 pM | 240 pM | 411000 | 270 pM
B5 | 220 pM | 150 pM | 346000 | –
